Measurements taken from the RNAGym collection of RNA variant scans (doi:10.7554/elife.80360).

B1: Hairpin Ribozyme (parent)
chain: GUCCUCUUUCACGUGCGCGUGAAAGAGAGAAGUGAACCAGAGAAACACACGUUGUGGUAUAUUACCUGGUA

Variants of: B1
Assay: self-cleavage, relative activity (ratio to wild type); higher = more cleavage; co-transcriptional

Variant | self-cleavage
G56C U70A | 0.272
G56C U70C | 0.134
G56U | 0.157
G56U A59G | 0.238
G56U A61U | 0.124
G56U A64C | 0.177
G56U A71C | 0.454
G56U A71U | 0.177
G56U C66A | 0.208
G56U G57A | 0.222
G56U G57C | 0.144
G56U G57U | 0.204
G56U G68U | 0.276
G56U U58A | 0.0912
G56U U62A | 0.186
G56U U62C | 0.122
G56U U63A | 0.157
G57A A64U | 0.119
G57A A71C | 0.4
G57A A71G | 0.112
G57A C65A | 0.222
G57A C65G | 0.291
G57A C66G | 0.103
G57A C66U | 0.2

Variant | self-cleavage
G57A G68C | 0.207
G57A G68U | 0.169
G57A G69C | 0.141
G57A G69U | 0.121
G57A U58A | 0.169
G57A U58C | 0.21
G57A U58G | 0.123
G57A U60G | 0.21
G57A U67C | 0.123
G57A U67G | 0.191
G57A U70A | 0.134
G57C A61G | 0.0894
G57C A64G | 0.126
G57C A71C | 0.356
G57C A71G | 0.201
G57C A71U | 0.157
G57C C65G | 0.154
G57C C66A | 0.15
G57C G68A | 0.195
G57C G68C | 0.21
G57C U58G | 0.277
G57C U60C | 0.156
G57C U62A | 0.183
G57C U62C | 0.15

Variant | self-cleavage
G57C U63G | 0.18
G57C U70G | 0.119
G57U A59U | 0.411
G57U A61C | 0.0714
G57U A71G | 0.254
G57U C66G | 0
G57U G68A | 0.188
G57U G68C | 0.211
G57U G69A | 0.149
G57U U60G | 0.177
G57U U62C | 0.158
G57U U70C | 0.075
U58A A59C | 0.252
U58A A59U | 0.183
U58A A64C | 0.143
U58A A64U | 0.237
U58A A71G | 0.768
U58A C65G | 0.0985
U58A C66G | 0.165
U58A G69U | 0.175
U58A U62C | 0.12
U58A U63A | 0.14
U58A U67G | 0.135
U58C A59C | 0.304

Variant | self-cleavage
U58C A59G | 0.272
U58C A61U | 0.38
U58C A64U | 0.0829
U58C A71C | 1.21
U58C C65A | 1.11
U58C C65G | 0.255
U58C G69U | 0.302
U58C U60G | 0.742
U58C U67C | 0.205
U58G A59C | 0.149
U58G A59U | 0.242
U58G A61C | 0.32
U58G A61G | 0.111
U58G A64C | 0.163
U58G A64G | 0.341
U58G C65A | 0.816
U58G C65U | 0.412
U58G C66G | 0.379
U58G G68A | 0.208
U58G G68C | 0.178
U58G G69U | 0.113
U58G U62G | 0.304
U58G U63G | 0.104
U58G U67G | 0.173

Variant | self-cleavage
U58G U70G | 0.575
A59C A61C | 0.0887
A59C A61G | 0.207
A59C A64U | 0.0804
A59C A71U | 0.156
A59C C66A | 0.0564
A59C G69A | 0.19
A59C G69U | 0.131
A59C U60C | 0.167
A59C U62C | 0.0999
A59C U62G | 0.123
A59C U63C | 0.199
A59C U63G | 0.164
A59C U67A | 0.241
A59C U67C | 0.123
A59C U70C | 0.151
A59C U70G | 0.141
A59G A61C | 0.39
A59G A64C | 0.273
A59G A64G | 0.176
A59G A71G | 0.0933
A59G A71U | 0.106
A59G C65U | 0.18
A59G C66G | 0.228

Variant | self-cleavage
A59G G69A | 0.125
A59G G69U | 0.15
A59G U62G | 0.167
A59G U67A | 0.311
A59G U67G | 0.153
A59G U70A | 0.163
A59U A61C | 0.0374
A59U A61U | 0.168
A59U A64C | 0.149
A59U A64G | 0.139
A59U A71G | 0.156
A59U A71U | 0.252
A59U C65G | 0.218
A59U U60C | 0.257
A59U U60G | 0.172
A59U U62A | 0.326
A59U U62C | 0.185
A59U U62G | 0.262
A59U U63A | 0.206
A59U U63G | 0.218
A59U U67C | 0.11
A59U U70A | 0.177
U60A G69A | 0.183
U60A G69C | 0.336

Variant | self-cleavage
U60A G69U | 0.129
U60A U63A | 0.164
U60A U63C | 0.151
U60A U67A | 0.198
U60A U70A | 0.61
U60A U70C | 0.626
U60C A61U | 0.296
U60C A64G | 0.614
U60C C65A | 1.34
U60C C66G | 0.0763
U60C G68C | 0.25
U60C G69A | 0.51
U60C U63A | 0.262
U60C U67A | 0.324
U60C U70A | 1.29
U60G A61G | 0.205
U60G A64U | 0.202
U60G A71C | 1.01
U60G A71G | 0.672
U60G C65A | 0.453
U60G C65G | 0.442
U60G G68A | 0.201
U60G G69U | 0.101
